Experimental data taken from US20110281938, “APTAMERS TO TISSUE FACTOR PATHWAY INHIBITOR AND THEIR USE AS BLEEDING DISORDER THERAPEUTICS” (Baxter Healthcare S.A., published 2011).

Key:
[1] = biological target: T1, TFPI (tissue factor pathway inhibitor, full-length) (Homo sapiens, UniProt P10646 SEQ:1-276); assay: competition; fails binding-competition criterion; conditions: tags: American Diagnostica 4500PC/4900PC, E. coli expressed
Method: Each molecule was evaluated for binding to tissue factor pathway inhibitor (TFPI) in a binding-competition assay. For these experiments, 10 nM human TFPI (American Diagnostica, Stamford, Conn., catalog #4500PC) was incubated with trace amounts of radiolabeled ARC17480 and 5000 nM, 1666.67 nM, 555.56 nM, 185.19 nM, 61.73 nM, 20.58 nM, 6.86 nM, 2.29 nM, 0.76 nM or 0.25 nM of unlabeled competitor aptamer. ARC17480 was included as a competitor in every experiment as a control. For each molecule, the percentage of radiolabeled ARC17480 bound at each competitor aptamer concentration was used for analysis. The percentage of radiolabeled ARC17480 bound was plotted as a function of aptamer concentration and fit to the equation y=(max/(1+x/IC₅₀))+int, where y=the percentage of radiolabeled ARC17480 bound, x=the concentration of aptamer, max=the maximum radiolabeled ARC17480 bound, and int=the y-intercept, to generate an IC₅₀ value for binding-competition. The IC₅₀ of each aptamer was compared to the IC₅₀ of ARC17480 that was evaluated in the same experiment. A substitution was considered tolerated in the binding-competition assay if the IC₅₀ of that molecule was not more than 5-fold greater than that of ARC17480 evaluated in the same experiment. Tolerated substitutions are indicated in Table 38 as meeting the assay criteria (“yes”) or not meeting the assay criteria (“no”).

[2] = biological target: T1, TFPI (tissue factor pathway inhibitor, …); assay: competition; dot-blot; conditions: tags: American Diagnostica 4500PC/4900PC, E. coli expressed
Method: Each molecule was evaluated for binding to tissue factor pathway inhibitor (TFPI) in a binding-competition assay. For these experiments, 10 nM human TFPI (American Diagnostica, Stamford, Conn., catalog #4500PC) was incubated with trace amounts of radiolabeled ARC17480 and 5000 nM, 1666.67 nM, 555.56 nM, 185.19 nM, 61.73 nM, 20.58 nM, 6.86 nM, 2.29 nM, 0.76 nM or 0.25 nM of unlabeled competitor aptamer. ARC17480 was included as a competitor in every experiment as a control. For each molecule, the percentage of radiolabeled ARC17480 bound at each competitor aptamer concentration was used for analysis. The percentage of radiolabeled ARC17480 bound was plotted as a function of aptamer concentration and fit to the equation y=(max/(1+x/IC₅₀))+int, where y=the percentage of radiolabeled ARC17480 bound, x=the concentration of aptamer, max=the maximum radiolabeled ARC17480 bound, and int=the y-intercept, to generate an IC₅₀ value for binding-competition. The IC₅₀ of each aptamer was compared to the IC₅₀ of ARC17480 that was evaluated in the same experiment. A substitution was considered tolerated in the binding-competition assay if the IC₅₀ of that molecule was not more than 5-fold greater than that of ARC17480 evaluated in the same experiment. Tolerated substitutions are indicated in Table 37 as meeting the assay criteria (“yes”) or not meeting the assay criteria (“no”).

T1 sequence (P10646 29-304): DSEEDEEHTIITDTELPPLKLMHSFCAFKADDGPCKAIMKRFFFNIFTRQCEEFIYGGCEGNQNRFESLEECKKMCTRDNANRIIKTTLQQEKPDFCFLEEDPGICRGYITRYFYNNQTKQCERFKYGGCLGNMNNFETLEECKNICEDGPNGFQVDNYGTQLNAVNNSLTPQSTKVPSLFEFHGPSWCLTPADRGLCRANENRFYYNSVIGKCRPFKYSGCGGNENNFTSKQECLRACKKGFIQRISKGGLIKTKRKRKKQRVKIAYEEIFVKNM

Binder	binding signal [1]	binding signal [2] [fold IC50 vs ARC17480]
GGAAUAUACUUGGCUCUUAGGUGCGUAUAUA (mixed, 2'-OMe A/G/U, 2'-deoxy C, 3' idT) [ARC33131]	> 5 fold IC50 of ARC17480	–
GGAAUAUACUUGGCUCGUUGGUGCGUAUAUA (mixed, 2'-OMe A/G/U, 2'-deoxy C, 3' idT) [ARC33133]	> 5 fold IC50 of ARC17480	–
GGAAUAUACUUGGCUCGUUAGUGCGUAUAUA (mixed, 2'-OMe A/G/U, 2'-deoxy C, 3' idT) [ARC33134]	> 5 fold IC50 of ARC17480	–
GGAATAUACUUGGCUCGUUAGGUGCGUAUAUA (XNA, 2'-OMe except dC9, dC14, dC16, dC25 and dT5; 3' idT) [ARC19452]	–	≤ 5
GGAAUAUACUUGGCUCGUUAGGUGCGUAUAUA (XNA, 2'-OMe except dC9, dC14, dC16, dC25 and dU31; 3' idT) [ARC33877]	–	≤ 5
GGAAUAUACUUGGCUCGUUAGGUGCGUAUAUA (XNA, 2'-OMe except dC9, dC14, dC16, dC25 and dA28; 3' idT) [ARC19471]	–	≤ 5
GGAAUAUACUUGGCUCGUUAGGUGCGUAUAUA (XNA, 2'-OMe except dC9, dC14, dC16, dC25 and dU27; 3' idT) [ARC33875]	–	≤ 5
GGAAUAUACUUGGCUCGUUAGGUGCGUAUAUA (XNA, 2'-OMe except dC9, dC14, dC16, dC25 and dU29; 3' idT) [ARC33876]	–	≤ 5
GGAAUAUACUUGGCUCGUUAGGUGCGUAUAUA (XNA, 2'-OMe except dC9, dC14, dC16, dC25 and dG24; 3' idT) [ARC19468]	–	≤ 5
GGAAUAUACUUGGCUCGUUAGGUGCGUAUAUA (XNA, 2'-OMe except dC9, dC14, dC16, dC25 and dG21; 3' idT) [ARC19465]	–	≤ 5
GGAAUAUACUUGGCUCGUUAGGUGCGUAUAUA (XNA, 2'-OMe except dC9, dC14, dC16, dC25 and dU7; 3' idT) [ARC33868]	–	≤ 5
GGAAUAUACUUGGCUCGUUAGGUGCGUAUAUA (XNA, 2'-OMe except dC9, dC14, dC16, dC25 and dG22; 3' idT) [ARC19466]	–	≤ 5
GGAAUAUACUUGGCUCGUUAGGUGCGUAUAUA (XNA, 2'-OMe except dC9, dC14, dC16, dC25 and dA4; 3' idT) [ARC19451]	–	≤ 5
GGAAUAUACUUGGCUCGUUAGGUGCGUAUAUA (XNA, 2'-OMe except dC9, dC14, dC16, dC25 and dA8; 3' idT) [ARC19455]	–	≤ 5
GGAAUAUACUUGGCUCGUUAGGUGCGUAUAUA (XNA, 2'-OMe except dC9, dC14, dC16; 2'-F C25; 3' idT) [ARC19496]	–	≤ 5
GGAAUAUACUUGGCUCGUUAGGUGCGUAUAUA (XNA, 2'-OMe except dC9, dC14, dC16, dC25 and dG17; 3' idT) [ARC19461]	–	≤ 5
GGAAUAUACUUGGCUCGUUAGGUGCGUAUAUA (XNA, 2'-OMe except dC9, dC14, dC16, dC25 and dU15; 3' idT) [ARC33871]	–	≤ 5
GGAAUAUACUUGGCUCGUUAGGUGCGTAUAUA (XNA, 2'-OMe except dC9, dC14, dC16, dC25 and dT27; 3' idT) [ARC19470]	–	≤ 5
GGAAUAUACUUGGCUCGUUAGGUGCGUATAUA (XNA, 2'-OMe except dC9, dC14, dC16, dC25 and dT29; 3' idT) [ARC19472]	–	≤ 5
GGAAUAUACUUGGCUCGUUAGGUGCGUAUAUA (XNA, 2'-OMe except dC9, dC14, dC16, dC25 and dU19; 3' idT) [ARC33873]	–	≤ 5
GGAAUAUACUTGGCUCGUUAGGUGCGUAUAUA (XNA, 2'-OMe except dC9, dC14, dC16, dC25 and dT11; 3' idT) [ARC19457]	–	≤ 5
GGAAUAUACUUGGCUCGUUAGGUGCGUAUAUA (XNA, 2'-OMe except dC9, dC14, dC16, dC25 and dU18; 3' idT) [ARC33872]	–	≤ 5
GGAAUAUACUUGGCUCGUUAGGUGCGUAUAUA (XNA, 2'-OMe except dC9, dC14, dC16, dC25 and dU5; 3' idT) [ARC33867]	–	≤ 5
GGAAUAUACUUGGCUCGUUAGGUGCGUAUAUA (XNA, 2'-OMe except dC9, dC14, dC16, dC25 and dG1; 3' idT) [ARC19448]	–	≤ 5
